# B1: IgG 4A06 (antibody, V domains shown)
# VH: EVQLVESGGGLVQPGGSLRLSCAASGFNLSYYYIHWVRQAPGKGLEWVASIYSSSSYTSYADSVKGRFTISADTSKNTAYLQMNSLRAEDTAVYYCARAYYGFDYWGQGTLVTVSS
# VL: DIQMTQSPSSLSASVGDRVTITCRASQSVSSAVAWYQQKPGKAPKLLIYSASSLYSGVPSRFSGSRSGTDFTLTISSLQPEDFATYYCQQSYYYYPITFGQGTKVEIK
# B2: CL03 Fab (Fab, V domains shown)
# VH: EVQLVESGGGLVQPGGSLRLSCAASGFNFSSYSIHWVRQAPGKGLEWVASIYPYSGSTYYADSVKGRFTISADTSKNTAYLQMNSLRAEDTAVYYCARQSHSYYSHTWWVSYGMDYWGQGTLVTVSS
# VL: DIQMTQSPSSLSASVGDRVTITCRASQSVSSAVAWYQQKPGKAPKLLIYSASSLYSGVPSRFSGSRSGTDFTLTISSLQPEDFATYYCQQSGQRPITFGQGTKVEIKR
# notes: also called Fab CL03
# What was measured:
# [1] = target: T1, c-CDCP1 (Cut 3) on HEK293T cells (human, UniProt Q9H5V8 30-369; Q9H5V8 370-836); test: flow cytometry, dose response on HEK293T-cCDCP1 cells (CDCP1 WT)
# T1 construct: T2A remnants not described; also called HEK293T c-CDCP1
# T1 sequence 1: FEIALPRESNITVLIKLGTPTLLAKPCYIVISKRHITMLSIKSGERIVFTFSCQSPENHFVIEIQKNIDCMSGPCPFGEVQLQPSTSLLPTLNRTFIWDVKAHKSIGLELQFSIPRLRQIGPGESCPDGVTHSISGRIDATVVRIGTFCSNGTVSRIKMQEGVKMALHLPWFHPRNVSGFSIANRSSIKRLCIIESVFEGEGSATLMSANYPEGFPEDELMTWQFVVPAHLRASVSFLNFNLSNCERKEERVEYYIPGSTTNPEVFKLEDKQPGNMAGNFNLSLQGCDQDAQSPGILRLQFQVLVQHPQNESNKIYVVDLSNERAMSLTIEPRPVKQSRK
# T1 sequence 2: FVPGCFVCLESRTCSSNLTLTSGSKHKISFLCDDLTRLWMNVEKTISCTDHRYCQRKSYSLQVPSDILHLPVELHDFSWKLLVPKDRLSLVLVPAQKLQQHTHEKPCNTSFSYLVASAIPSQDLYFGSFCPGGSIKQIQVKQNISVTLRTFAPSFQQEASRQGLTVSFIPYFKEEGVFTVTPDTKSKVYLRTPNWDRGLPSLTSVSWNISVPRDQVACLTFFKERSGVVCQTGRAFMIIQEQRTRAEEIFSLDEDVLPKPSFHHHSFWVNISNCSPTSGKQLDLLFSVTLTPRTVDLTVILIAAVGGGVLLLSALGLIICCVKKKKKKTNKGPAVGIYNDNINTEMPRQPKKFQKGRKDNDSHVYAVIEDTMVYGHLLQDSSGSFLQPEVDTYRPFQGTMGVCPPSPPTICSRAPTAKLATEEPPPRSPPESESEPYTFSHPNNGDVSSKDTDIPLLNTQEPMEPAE
# [2] = target: T2, full-length (uncleaved) human CDCP1 on cells (human, UniProt Q9H5V8 30-836); test: flow cytometry, dose response on HEK293T-flCDCP1 cells (CDCP1 WT)
# T2 construct: HPAC cells express mostly uncleaved CDCP1 (endogenous); also called fl-CDCP1; uncleaved CDCP1 on HPAC cells
# T2 sequence: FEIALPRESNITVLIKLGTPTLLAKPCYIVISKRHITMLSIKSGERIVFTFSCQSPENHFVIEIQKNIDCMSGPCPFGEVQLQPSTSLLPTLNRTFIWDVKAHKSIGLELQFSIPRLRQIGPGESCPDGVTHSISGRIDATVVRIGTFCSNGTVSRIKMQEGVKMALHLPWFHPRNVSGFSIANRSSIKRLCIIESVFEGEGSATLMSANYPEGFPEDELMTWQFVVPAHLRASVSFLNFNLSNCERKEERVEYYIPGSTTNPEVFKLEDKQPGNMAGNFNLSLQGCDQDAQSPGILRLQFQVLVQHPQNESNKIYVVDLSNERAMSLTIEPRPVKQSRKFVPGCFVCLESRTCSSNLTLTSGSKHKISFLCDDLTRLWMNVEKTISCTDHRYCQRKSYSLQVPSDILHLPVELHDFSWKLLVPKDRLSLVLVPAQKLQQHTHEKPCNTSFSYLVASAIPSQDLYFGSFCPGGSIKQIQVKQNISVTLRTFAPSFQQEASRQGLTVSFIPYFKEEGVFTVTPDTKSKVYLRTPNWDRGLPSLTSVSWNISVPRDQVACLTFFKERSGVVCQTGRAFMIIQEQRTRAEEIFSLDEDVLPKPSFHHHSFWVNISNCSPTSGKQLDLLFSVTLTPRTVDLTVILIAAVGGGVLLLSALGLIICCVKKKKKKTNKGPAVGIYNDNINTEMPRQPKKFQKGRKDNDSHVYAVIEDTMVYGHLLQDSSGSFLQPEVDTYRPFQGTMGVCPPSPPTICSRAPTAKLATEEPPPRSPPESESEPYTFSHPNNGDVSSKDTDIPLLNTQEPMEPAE
# [3] = target: T3, NTF immobilized via the N-termini (human, UniProt Q9H5V8 30-367, limits assumed); test: multipoint BLI (Octet), His-NTF on a Ni-NTA biosensor, CL03 Fab at 100, 50, 25, 12.5, 6.25 nM
# T3 sequence: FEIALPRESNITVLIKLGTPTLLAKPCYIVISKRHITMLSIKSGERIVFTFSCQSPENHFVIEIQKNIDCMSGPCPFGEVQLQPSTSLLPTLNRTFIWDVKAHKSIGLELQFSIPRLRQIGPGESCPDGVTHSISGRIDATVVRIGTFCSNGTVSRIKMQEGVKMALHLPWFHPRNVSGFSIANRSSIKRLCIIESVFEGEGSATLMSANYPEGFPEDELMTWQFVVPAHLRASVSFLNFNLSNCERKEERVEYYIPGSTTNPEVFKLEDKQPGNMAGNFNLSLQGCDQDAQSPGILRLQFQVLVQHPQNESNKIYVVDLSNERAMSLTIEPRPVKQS
# Method: (§1) BLI experiments were performed using an Octet RED384 instrument (ForteBio). Biotinylated proteins were immobilized on a streptavidin (SA) biosensor and His-tagged proteins were immobilized on a Ni-NTA biosensor. Different concentrations of analyte in PBS pH 7.4+0.05% Tween-20+0.2% BSA (PBSTB) were used as analyte. Affinities (KDS) were calculated from a global fit (1:1) of the data using the Octet RED384 software.
# (§2) To investigate the binding mechanism of CL03, the binding of CL03 to different CDCP1 antigens was measured by BLI using standard methods. In instances when the C-termini of the NTF was immobilized either via an Fc domain or directly to the biosensor surface, there was no binding of CL03 (FIG. 6A-FIG. 6B). In instances when the NTF was immobilized via the N-termini, CL03 bound NTF at similar affinity to the full c-CDCP1 antigen (FIG. 6B-FIG. 6C). Additionally, it was observed that CL03 recognized an uncleaved CDCP1 variant where a 16-amino acid linker was inserted between CUB1 and CUB2 at the R368/K369 proteolysis site (FIG. 6D).
# c-CDCP1-Fc (Cut 1) = target: T4, c-CDCP1-Fc (Cut 1) (human, UniProt Q9H5V8 30-365; Q9H5V8 366-667); test: BLI (Octet), table of in vitro binding affinities
# T4 construct: Co-transfection of NTF and CTF-Fc plasmids; not shown: Fc domain
# T4 sequence 1: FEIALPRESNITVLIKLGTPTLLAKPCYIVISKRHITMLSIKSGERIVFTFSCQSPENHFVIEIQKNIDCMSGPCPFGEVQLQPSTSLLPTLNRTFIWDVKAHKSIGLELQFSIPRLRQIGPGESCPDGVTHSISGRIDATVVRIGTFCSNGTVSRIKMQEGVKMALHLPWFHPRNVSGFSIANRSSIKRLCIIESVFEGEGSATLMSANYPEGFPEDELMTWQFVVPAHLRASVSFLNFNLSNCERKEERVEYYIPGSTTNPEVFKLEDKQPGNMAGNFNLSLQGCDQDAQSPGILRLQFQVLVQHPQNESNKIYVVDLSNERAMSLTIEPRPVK
# T4 sequence 2: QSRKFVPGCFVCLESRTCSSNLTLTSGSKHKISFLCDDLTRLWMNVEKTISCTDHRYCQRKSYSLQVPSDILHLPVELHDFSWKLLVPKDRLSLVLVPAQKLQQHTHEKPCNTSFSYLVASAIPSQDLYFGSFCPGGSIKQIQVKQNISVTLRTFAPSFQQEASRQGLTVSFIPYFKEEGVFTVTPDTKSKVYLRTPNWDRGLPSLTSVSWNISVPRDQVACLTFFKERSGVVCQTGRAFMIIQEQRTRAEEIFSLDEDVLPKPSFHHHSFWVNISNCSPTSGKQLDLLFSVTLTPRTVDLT
# Method: as §1
# c-CDCP1-Fc (Cut 3) = target: T5, c-CDCP1-Fc (Cut 3) (human, UniProt Q9H5V8 30-369; Q9H5V8 370-667); test: BLI (Octet), table of in vitro binding affinities
# T5 construct: Co-transfection of NTF and CTF-Fc plasmids; not shown: Fc domain
# T5 sequence 1: T1 sequence 1
# T5 sequence 2: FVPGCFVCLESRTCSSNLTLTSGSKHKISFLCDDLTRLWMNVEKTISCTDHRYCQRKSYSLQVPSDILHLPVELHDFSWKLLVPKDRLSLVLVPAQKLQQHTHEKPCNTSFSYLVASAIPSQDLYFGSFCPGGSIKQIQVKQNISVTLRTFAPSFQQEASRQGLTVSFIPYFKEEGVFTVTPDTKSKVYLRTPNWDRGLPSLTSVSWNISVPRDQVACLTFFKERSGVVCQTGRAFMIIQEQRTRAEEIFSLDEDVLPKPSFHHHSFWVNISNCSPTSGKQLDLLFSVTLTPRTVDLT
# Method: as §1
# c-CDCP1-Fc (Cut 2) = target: T6, c-CDCP1-Fc (Cut 2) (human, UniProt Q9H5V8 30-368; Q9H5V8 369-667); test: BLI (Octet), table of in vitro binding affinities
# T6 construct: Co-transfection of NTF and CTF-Fc plasmids; not shown: Fc domain
# T6 sequence 1: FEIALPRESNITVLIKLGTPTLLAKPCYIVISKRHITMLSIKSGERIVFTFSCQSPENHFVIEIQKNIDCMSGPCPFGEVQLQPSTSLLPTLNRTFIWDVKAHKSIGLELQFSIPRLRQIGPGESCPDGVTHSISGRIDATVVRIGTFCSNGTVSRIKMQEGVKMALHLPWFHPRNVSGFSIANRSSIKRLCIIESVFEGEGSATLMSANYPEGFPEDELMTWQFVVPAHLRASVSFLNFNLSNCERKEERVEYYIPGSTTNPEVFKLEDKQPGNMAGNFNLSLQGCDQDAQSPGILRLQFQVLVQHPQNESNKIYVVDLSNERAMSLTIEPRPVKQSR
# T6 sequence 2: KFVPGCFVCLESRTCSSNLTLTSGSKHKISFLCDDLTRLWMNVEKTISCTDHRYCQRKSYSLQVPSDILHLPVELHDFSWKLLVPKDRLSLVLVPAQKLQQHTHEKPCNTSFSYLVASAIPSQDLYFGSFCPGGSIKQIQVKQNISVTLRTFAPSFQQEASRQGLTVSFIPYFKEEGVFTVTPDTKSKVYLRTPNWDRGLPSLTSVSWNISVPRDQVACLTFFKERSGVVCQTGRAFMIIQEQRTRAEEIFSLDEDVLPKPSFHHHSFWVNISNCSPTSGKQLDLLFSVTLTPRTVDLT
# Method: as §1
# [4] = target: T7, c-CDCP1 (Cut 3) ectodomain (human, UniProt Q9H5V8 30-369; Q9H5V8 370-667); test: multipoint BLI (Octet), c-CDCP1 (Cut 3) held by its His-tag on a Ni-NTA biosensor, CL03 Fab at 100, 50, 25, 12.5, 6.25 nM
# T7 construct: Made by co-transfection of NTF and CTF plasmids, purified by Ni-NTA (tag not described); also called cCDCP1 ECD cut 3
# T7 sequence 1: T1 sequence 1
# T7 sequence 2: T5 sequence 2
# Method: as §1, §2
Binder,EC50 (read off the curve) [1],EC50 (read off the curve) [2],Kd [3],Kd (c-CDCP1-Fc (Cut 1)),koff (c-CDCP1-Fc (Cut 1)),kon (c-CDCP1-Fc (Cut 1)),Kd (c-CDCP1-Fc (Cut 3)),Kd (c-CDCP1-Fc (Cut 2)),Kd [4]
B1,~0.4 nM,~1 nM,,,,,,,
B2,,,10.5 nM,2.26 nM,0.000648 s⁻¹,288000 M⁻¹ s⁻¹,3.59 nM,3.91 nM,9.74 nM

# From US20240376224A1 (University of California, published 2024)
